Biological target: T1, EpCAM (UniProt P16422 P16422:24-265)
T1 sequence: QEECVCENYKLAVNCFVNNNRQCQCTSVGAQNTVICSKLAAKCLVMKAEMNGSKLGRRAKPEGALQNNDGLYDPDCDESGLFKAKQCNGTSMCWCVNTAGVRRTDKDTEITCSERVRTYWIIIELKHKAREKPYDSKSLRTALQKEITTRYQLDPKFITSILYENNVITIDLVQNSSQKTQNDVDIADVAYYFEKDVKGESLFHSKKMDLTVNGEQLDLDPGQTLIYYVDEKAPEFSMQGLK
Assay: stated only; no assay details

B1: Aptamer 4 (ssDNA)
DNA: CCCCCCGAATCACATGACTTGGGCGGGGGTCG
modifications: 6-T 3' tail as spacer for biotin (shown in figure)
**Q.** Does B1 bind?
**A.** Result: binds
